# Measured values reported in the supplement of paper PMC10724198.
# ± gives the standard deviation of the averaged measurements.
# Test system: Saccharomyces cerevisiae
# Test: protein stability index of tFT-peptide fusion (C-terminal peptide) (PSI (0-1 scale)); higher = more stable (slower turnover)
# Conditions: genetic background: wild type; temperature: 30 C
# Method: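 Multiplexed protein stability (MPS) profiling in S. cerevisiae. Random 12-aa peptides (tFT-X12 library) are fused to the C-terminus of a sfGFP-mCherry tandem fluorescent timer, after mCherry and a GGGS linker. Cells are FACS-sorted into 8 mCherry/sfGFP bins and deep-sequenced. The protein stability index (PSI) is the read-weighted bin average, scaled from 0 (unstable) to 1 (stable). Only peptides with >10 reads are reported; cells were grown at 30 °C in SC-His with glucose.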
# 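Also: PSI is a weighted mean of sequencing reads over stability bins, variants kept only with over 10 reads, mCherry proximal and sfGFP distal, peptide attached via GGGS linker.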
row,Sequence,protein stability index
1,EREKERNKNGKY,0.671 ± 0.013
2,ERKHIISKGMNN,0.608 ± 0.041
3,ERKRPLAKKTKN,0.643 ± 0.055
4,ERNSKKKRKRRL,0.701 ± 0.08
5,ERTDEKTAEKER,0.7012 ± 0.0049
6,ERYLCVGIAHGP,0.706 ± 0.02
7,ESAGESRREFGG,0.693 ± 0.011
8,ESAGPSIYKLVT,0.638 ± 0.0092
9,ESDSEITYNKKQ,0.729 ± 0.012
10,ESGDKYKRRTQP,0.699 ± 0.052
11,ESIQAASANDSQ,0.688 ± 0.043
12,ESIQGRHRMSCL,0.6912 ± 0.006
13,ESLLFICAHALV,0.566 ± 0.017
14,ESLVIIIAGSMF,0.567 ± 0.15
15,ESLVSFTRPFSR,0.748 ± 0.026
16,ESNFTLIRKIRT,0.64 ± 0.0065
17,ESQSLLLFQEPS,0.696 ± 0.057
18,ESRARRRQGGKR,0.738 ± 0.015
19,ESRVTNKQSYQA,0.678 ± 0.03
20,ETALKVGSVGGV,0.71037 ± 6.9e-05
21,ETCIWDGRPIAS,0.723 ± 0.085
22,ETGTRELIRQWV,0.718 ± 0.02
23,EVGFPGRSWGAG,0.689 ± 0.07
24,EVGWMPFYLVGL,0.67 ± 0.11
25,EVKKTFCFSKDI,0.672 ± 0.011
26,EVPGALISLHFY,0.654 ± 0.038

row,Sequence,protein stability index
1,EVRCVFTGWHSS,0.785 ± 0.096
2,EVSRCRTVPVWL,0.662 ± 0.07
3,EVTGGRGGEGGV,0.694 ± 0.046
4,EVVGGSESRELG,0.6569 ± 0.0027
5,EVWGGFGGGGGS,0.72 ± 0.027
6,EWCVRKATRDIE,0.659 ± 0.014
7,EWGAGGVVVGGW,0.718 ± 0.043
8,EWLCLRGCCVLY,0.667 ± 0.015
9,EWLRYNKDKRKI,0.774 ± 0.14
10,EWQAGSDRRFYW,0.618 ± 0.013
11,EWSGWVGKCGRG,0.6644 ± 0.0059
12,EYCSSCLADLSP,0.69 ± 0.074
13,EYYRYLPVLIRL,0.467 ± 0.055
14,FAARASLSPLTR,0.855 ± 0.2
15,FAFSDFHLVVFF,0.684 ± 0.011
16,FALRDLHLSCFA,0.577 ± 0.012
17,FANKLYSVFMDN,0.655 ± 0.13
18,FAPTRAAPVTVS,0.5712 ± 0.0057
19,FAPVPPRATFSH,0.691 ± 0.022
20,FASFLSIPTRFS,0.712 ± 0.02
21,FCCFFFPALCCL,0.493 ± 0.024
22,FCCVETRRCVRL,0.717 ± 0.16
23,FCGDDVCLTHFG,0.729 ± 0.029
24,FCLGSVIWERDS,0.625 ± 0.076
25,FCLLSCDTFSSS,0.6318 ± 0.0042
26,FCLPVFCVPSHF,0.634 ± 0.11

row,Sequence,protein stability index
1,FCRKVFFALRRF,0.612 ± 0.095
2,FCSCSCEFVPRS,0.618 ± 0.039
3,FCSLLDSLVGGC,0.745 ± 0.072
4,FCSQNLQMNQLS,0.6 ± 0.041
5,FCVFSDVSRFSY,0.701 ± 0.082
6,FCVVGKGWKGEG,0.626 ± 0.0098
7,FCWLCRFADSPF,0.733 ± 0.078
8,FDDSNSRTGPVQ,0.692 ± 0.11
9,FDGRVTALRVRL,0.724 ± 0.033
10,FDITGAGLDSSF,0.7904 ± 0.0053
11,FDSSLFTVSQYH,0.768 ± 0.084
12,FDSYVNHRLNRD,0.608 ± 0.057
13,FDVAPTSRVNFL,0.724 ± 0.06
14,FERRGSSFWGGC,0.7 ± 0.032
15,FESGINWLLSDK,0.672 ± 0.06
16,FFACHDGYWCGC,0.778 ± 0.036
17,FFAGELGVYCLV,0.596 ± 0.033
18,FFAPSRLHHLSL,0.772 ± 0.071
19,FFFPLLLLSPPI,0.535 ± 0.015
20,FFGGAGGTEGLG,0.689 ± 0.048
21,FFMNGLWGLSVR,0.612 ± 0.0092
22,FFPARPPPPPPR,0.769 ± 0.04
23,FFPELSNLHPPS,0.708 ± 0.017
24,FFPFSLFPLPPS,0.744 ± 0.066
25,FFPPPSSFCLSL,0.772 ± 0.069
26,FFRSFVVGSVLV,0.567 ± 0.0064

row,Sequence,protein stability index
1,FFSPSSVSVGVR,0.65 ± 0.076
2,FFSRSPVFSFDF,0.8218 ± 0.0017
3,FFSSSDRQLSNQ,0.716 ± 0.041
4,FFSSTVFLLFLP,0.569 ± 0.025
5,FFTPSKQSQAYC,0.662 ± 0.027
6,FFVIIPAKSWLG,0.546 ± 0.03
7,FFVRCTEWLGED,0.6161 ± 0.0039
8,FGAEWRGVLSGC,0.773 ± 0.013
9,FGARVWVGRVGG,0.657 ± 0.069
10,FGCCCGGGLLGV,0.711 ± 0.027
11,FGCRARYDLVLI,0.641 ± 0.098
12,FGFHSLSISFFM,0.611 ± 0.035
13,FGFLELTDPHGC,0.576 ± 0.023
14,FGGFVPSSQCLI,0.712 ± 0.018
15,FGGGGLAPSLQS,0.602 ± 0.044
16,FGGKLVTHGISY,0.673 ± 0.054
17,FGGTAVAGLFDL,0.725 ± 0.061
18,FGIRGMTSVGSP,0.675 ± 0.088
19,FGKWSWGECEGS,0.69 ± 0.032
20,FGLPFPSNIVSG,0.757 ± 0.024
21,FGLPGGVTVVTW,0.757 ± 0.14
22,FGQSKFAMKGVR,0.708 ± 0.0086
23,FGRAGAGERRGA,0.722 ± 0.28
24,FGRSGDGVGGLA,0.667 ± 0.026
25,FGRVRFCFRMRS,0.671 ± 0.025
26,FGSSLVVSMVFD,0.704 ± 0.015

row,Sequence,protein stability index
1,FGTATPPPTLPP,0.727 ± 0.02
2,FGVLGCGFLLSL,0.688 ± 0.018
3,FGVVCIGVLGGV,0.5361 ± 0.0014
4,FGVVLEGAGWGG,0.73742 ± 0.00056
5,FGYAGGSRVLGS,0.68 ± 0.0095
6,FGYCFYRFHLQR,0.666 ± 0.049
7,FGYGLPFPERVE,0.781 ± 0.046
8,FHPTCAPLPCPP,0.663 ± 0.038
9,FHPVLPMSFRHV,0.666 ± 0.029
10,FHSRGVASPQPP,0.682 ± 0.018
11,FHTLCLGPCTVI,0.675 ± 0.035
12,FISVFALWDVFL,0.7 ± 0.01
13,FISYFRFDRFGS,0.699 ± 0.029
14,FKVVLGRLGVRA,0.53638 ± 6.4e-06
15,FLAPPPDVGQLV,0.692 ± 0.038
16,FLCNSVAGSLCI,0.643 ± 0.022
17,FLCSLAPHRPLL,0.704 ± 0.033
18,FLFHAIGTCRLC,0.671 ± 0.015
19,FLFLTCPFSFSF,0.633 ± 0.018
20,FLFVVSFGGAVA,0.512 ± 0.0061
21,FLGGDVVGVFVG,0.658 ± 0.059
22,FLISLPLPAPLP,0.679 ± 0.013
23,FLLCLWIFFFGS,0.482 ± 0.028
24,FLLFIRGFSGCR,0.624 ± 0.018
25,FLLVCLNDVLRP,0.588 ± 0.062
26,FLPLPRPRLLLP,0.617 ± 0.0076

row,Sequence,protein stability index
1,FLPPPPTPSPPY,0.723 ± 0.043
2,FLPPPPVLPSLP,0.697 ± 0.024
3,FLPTALTQPLIT,0.624 ± 0.028
4,FLQIPVQILPDP,0.705 ± 0.027
5,FLRLSPQFASFP,0.677 ± 0.083
6,FLSWSLPCITFR,0.571 ± 0.051
7,FLTCTTSLPFVP,0.728 ± 0.13
8,FLVSPFTLFPFS,0.754 ± 0.12
9,FMHCLLAQFAGL,0.705 ± 0.11
10,FNSFPPSPSLRP,0.729 ± 0.012
11,FNVSCLRPNMGE,0.712 ± 0.044
12,FPATSTCTFALY,0.665 ± 0.0012
13,FPCVAVFVESNR,0.647 ± 0.049
14,FPFSSFSGRCVD,0.6697 ± 0.0042
15,FPHRHAPYPSAI,0.7 ± 0.035
16,FPLIFALFPTFF,0.603 ± 0.0067
17,FPLPPHSSPLPP,0.695 ± 0.037
18,FPPHPPPPPPLN,0.743 ± 0.041
19,FPPLIPLPINHP,0.631 ± 0.1
20,FPPLLASPPPSP,0.705 ± 0.011
21,FPPLRSLPPTPP,0.793 ± 0.12
22,FPPPLCLHRPIP,0.786 ± 0.1
23,FPPPLHFPPLPA,0.723 ± 0.055
24,FPPPPPRPPRLP,0.68 ± 0.075
25,FPPPPRPPLSFP,0.711 ± 0.078
